The text below walks through data of the DeepSol protein solubility set.

This data set is described as follows: soluble on expression in E. coli; label from the status in PepcDB or PDB records.
Consider “MTPDPLAPLDLAFWNIESAEHPMHLGALGVFEADSPTAGALAADLLAARAPAVPGLRMRIRDTWQPPMALRRPFAFGGATREPDPRFDPLDHVRLHAPATDFHARAGRLMERPLERGRPPWEAHVLPGADGGSFAVLFKFHHALADGLRALTLAAGVLDPMDLPAPRPRPEQPPRGLLPDVRALPDRLRGALSDAGRALDIGAAAALSTLDVRSSPALTAASSGTRRTAGVSVDLDDVHHVRKTTGGTVNDVLIAVVAGALRRWLDERGDGSEGVAPRALIPVSRRRPRSAHPQGNRLSGYLMRLPVGDPDPLARLGTVRAAMDRNKDAGPGRGAGAVALLADHVPALGHRLGGPLVSGAARLWFDLLVTSVPLPSLGLRLGGHPLTEVYPLAPLARGHSLAVAVSTYRGRVHYGLLADAKAVPDLDRLAVAVAEEVETLLTACRPLEHHHHHH”, for which the “soluble on expression in E. coli” value is recorded as “soluble”.
Regarding “MGSSHHHHHHSSGLVPRGSSTYRDIVVKKEDGFTQIVLSTRSTEKNALNTEVIKEIVNALNSAAADDSKLVLFSAAGSVFCCGLDFGYFVKHLRNNRNTASLEMVDTIKNFVNTFIQFKKPIVVSVNGPAIGLGASILPLCDLVWANEKAWFQTPYTTFGQSPDGCSSITFPKMMGKASANEMLIAGRKLTAREACAKGLVSQVFLTGTFTQEVMIQIKELASYNPIVLEECKALVRCNIKLELEQANERECEVLRKIWSSAQGIESMLKIPLLGYKAAFPPRKTQNDQRW”, the “soluble on expression in E. coli” value is recorded as “soluble”.
Turning to “MGSDKIHHHHHHMLDKKTDILLAARKLFSEKDFTSVSMQAIAEECKMSKASIYKLFQSKEDLLLELLSFNQKQMVAAASRLQENTALTPEERLTQKVKMELEGFRRNQQFFNMLTYGNPRLHNDRVKQHIHQTRSTIICWHRDSLIQAYGETILPFVWDLVIILHGMMREFLMLIKIEEKPLELDPIAEFIISTLNQIIKNRETRQSLLPPEAIELYIHSASSYKPKDKSVLLSESLKELHKGISSLSAADYDVDELTSAAAMLEEEAKKEEPRAFLLKSLIGYLEQTGVLTQPVSMLKTLLIT”, the “soluble on expression in E. coli” value was “not soluble”.
In the case of “MAETTPKVKGHVVILPYPVQGHLNPMVQFAKRLVSKNVKVTIATTTYTASSITTPSLSVEPISDGFDFIPIGIPGFSVDTYSESFKLNGSETLTLLIEKFKSTDSPIDCLIYDSFLPWGLEVARSMELSAASFFTNNLTVCSVLRKFSNGDFPLPADPNSAPFRIRGLPSLSYDELPSFVGRHWLTHPEHGRVLLNQFPNHENADWLFVNGFEGLEETQDCENGESDAMKATLIGPMIPSAYLDDRMEDDKDYGASLLKPISKECMEWLETKQAQSVAFVSFGSFGILFEKQLAEVAIALQESDLNFLWVIKEAHIAKLPEGFVESTKDRALLVSWCNQLEVLAHESIGCFLTHCGWNSTLEGLSLGVPMVGVPQWSDQMNDAKFVEEVWKVGYRAKEEAGEVIVKSEELVRCLKGVMEGESSVKIRESSKKWKDLAVKAMSEGGSSDRSINEFIESLGK” it was “soluble”; in that of “MAPRKKVNEMVIRKTANLTDKMRKERTVEEFEEVKTAQSKSYESDTSSAESLRQKRTAPSAIRTVQIQKEIVLPYDGNLVSVYEKSSNTRSLDTISEPGDLEEFKKKAEESKYVGPQIVPMKFVTTDVETPVKAIFVSDFDFCQAMHHPPQSSTQSKKVEFSKRFEVEQKFLEEMVADIEKLIVSSGRMDVELKVVKAREENDSPRAKISLVRKIHAEKVDDNLNNQAGLVGFILPDLEMKDHGIPLKITKNQQVPSGQKMFESFKRLFGY”, “not soluble”; in that of “MGDKGTRVFKKASPNGKLTVYLGKRDFVDHIDLVEPVDGVVLVDPEYLKERRVYVTLTCAFRYGREDLDVLGLTFRKDLFVANVQSFPPAPEDKKPLTRLQERLIKKLGEHAYPFTFEIPPNLPCSVTLQPGPEDTGKACGVDYEVKAFCAENLEEKIHKRNSVRLVIRKVQYAPERPGPQPTAETTRQFLMSDKPLHLEASLDKEIYYHGEPISVNVHVTNNTNKTVKKIKISVRQYADICLFNTAQYKCPVAMEEADDTVAPSSTFCKVYTLTPFLANNREKRGLALDGKLKHEDTNLASSTLLREGANREILGIIVSYKVKVKLVVSRGGLLGDLASSDVAVELPFTLMHPKPKEEPPHREVPEHETPVDTNLIELDTNDDDIVFEDFARQRLKGMKDDKEEEEDGTGSPRLNDR”, “soluble”.
